Test [1] addresses T1, human TNFR2 expressed on cells (human, UniProt P20333 23-461).
T1 construct: whole, on cells; also called hTNFR2 (cell); CHO-TNFR2
T1 sequence (looked up): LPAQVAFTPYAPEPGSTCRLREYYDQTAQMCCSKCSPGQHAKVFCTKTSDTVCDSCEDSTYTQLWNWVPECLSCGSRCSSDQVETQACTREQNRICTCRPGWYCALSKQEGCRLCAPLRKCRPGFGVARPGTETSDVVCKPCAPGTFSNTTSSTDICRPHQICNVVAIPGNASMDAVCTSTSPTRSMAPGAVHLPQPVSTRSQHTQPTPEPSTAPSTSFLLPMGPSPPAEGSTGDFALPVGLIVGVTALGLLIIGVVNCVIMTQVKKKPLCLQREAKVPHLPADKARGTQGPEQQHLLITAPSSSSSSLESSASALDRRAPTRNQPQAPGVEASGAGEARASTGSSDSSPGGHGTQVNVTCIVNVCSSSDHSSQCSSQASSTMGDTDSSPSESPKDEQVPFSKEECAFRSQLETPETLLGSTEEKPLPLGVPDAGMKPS
Nature of the test: flow cytometry on CHO cells expressing human TNFR2. How it is done:
(§1) In FIGS. 3A-3B, human (3A) or cynomolgus (3B) TNFR2-His tagged protein was coated on 96-well ELISA plates at 1 μg/mL and incubated overnight at 4° C. Plates were washed and blocked using 1% BSA. Antibodies were added for 1 hour at room temperature (RT), washed, and detected using anti-Human HRP. Assay was developed using TMB substrate for 3-5 minutes. In FIG. 3C, FACS binding was performed on CHO cells that were engineered to express human TNFR2. Briefly, antibodies were incubated with 200,000 cells in MACS buffer for 1 hour followed by wash and detection using anti-human IgG BV421 for 20 minutes. Samples were analyzed using Cytoflex or MACSQuant flow cytometers. In FIG. 3D, ligand blocking ELISA was performed by coating plates with 1 ug/mL TNFR-Fc overnight at 4° C. Plates were washed, blocked and antibodies were incubated for 1 hr at RT. […] Assay was developed using TMB substrate for 5-7 minutes.
(In general: In flow cytometry, cells or beads pass a laser one at a time.)

Another test deals with T2, TNFR-Fc (UniProt P20333 23-257, limits assumed).
T2 construct: Printed only as TNFR-Fc; not shown: Fc part
T2 sequence (looked up): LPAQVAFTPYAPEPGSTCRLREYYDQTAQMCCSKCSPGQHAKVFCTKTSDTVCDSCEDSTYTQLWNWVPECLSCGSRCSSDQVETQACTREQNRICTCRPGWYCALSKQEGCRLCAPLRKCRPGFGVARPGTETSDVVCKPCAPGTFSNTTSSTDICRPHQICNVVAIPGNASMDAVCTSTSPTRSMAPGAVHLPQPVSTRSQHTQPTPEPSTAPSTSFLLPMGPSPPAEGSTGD
Nature of the test: TNF-α blocking ELISA on coated TNFR-Fc. The method, then:
as §1
A general note: ELISA stands for enzyme-linked immunosorbent assay.

The target of a further test is T3, soluble mouse TNFR2 (mouse, UniProt P25119 23-258, limits assumed).
T3 sequence (looked up): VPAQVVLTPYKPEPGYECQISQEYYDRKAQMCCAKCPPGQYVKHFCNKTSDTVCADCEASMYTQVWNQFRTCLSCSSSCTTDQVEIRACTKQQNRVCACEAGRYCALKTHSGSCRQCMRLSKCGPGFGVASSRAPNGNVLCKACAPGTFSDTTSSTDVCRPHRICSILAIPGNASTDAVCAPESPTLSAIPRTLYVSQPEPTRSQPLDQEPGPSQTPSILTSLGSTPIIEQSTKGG
Nature of the test: binding screen on soluble mouse TNFR2 (mouse cross-reactivity).

The target in test [2] is T4, cynomolgus TNFR2-His tagged protein (cynomolgus, UniProt A0A2K5VET2 132-366).
T4 construct: also called Cyno TNFR2; cynomolgus TNFR2 protein; not shown: His tag
T4 sequence: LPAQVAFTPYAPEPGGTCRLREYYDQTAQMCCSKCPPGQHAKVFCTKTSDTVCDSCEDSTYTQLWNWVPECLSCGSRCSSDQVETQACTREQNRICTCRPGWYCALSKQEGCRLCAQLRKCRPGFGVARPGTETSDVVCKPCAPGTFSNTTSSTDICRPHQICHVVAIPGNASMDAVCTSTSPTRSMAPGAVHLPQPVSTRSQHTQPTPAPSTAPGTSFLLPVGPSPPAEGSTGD
Nature of the test: ELISA on coated cynomolgus TNFR2-His. The method, then: as §1

Test [3] deals with T5, human TNFR2-His tagged protein (soluble) (human, UniProt P20333 23-257).
T5 construct: also called hTNFR2 (soluble); soluble TNFR2-His; not shown: His tag
T5 sequence (looked up): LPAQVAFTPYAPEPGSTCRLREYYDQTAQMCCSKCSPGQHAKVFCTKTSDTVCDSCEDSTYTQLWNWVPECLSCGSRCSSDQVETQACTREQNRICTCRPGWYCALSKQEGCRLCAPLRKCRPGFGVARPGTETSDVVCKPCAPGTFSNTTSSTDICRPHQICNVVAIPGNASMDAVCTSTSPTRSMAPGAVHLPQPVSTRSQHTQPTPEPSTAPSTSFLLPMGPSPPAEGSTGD
Nature of the test: ELISA on coated human TNFR2-His. How it is done: as §1

Results on 11 molecules are retold here after patent US20220372154A1 (APEXIGEN, published 2022).

One may read the EC50 as the concentration at which the effect is half-maximal. As a reminder, the IC50 is the concentration that inhibits the measured activity by half. Lower therefore signals greater potency in that assay.

B1: chimeric antibody clone 9 (rab600_25_9) (antibody, V domains shown)
VH: QSVEESGGRLVTPGTPLTLTCTVSGFSLSTYDINWVRQAPGKGLEWIGIIYTGGITNFANWAKGRFTISKTSTTVDLKIASPTTEDTATYFCARGGYDSDGYVYPDAFDPWGPGTLVTVSS
VL: ALVMTQTPASVEADVGGTVTINCQASESISNLLAWYQQKPGQRPKLLIYRASILTSGVSSRFKGSGSGTEYTLTINGVQCADAATYYCQHGYTGTNVQNVFGGGTEVVVK
Turning to B1, the results for the EC50 in test [1], in test [2] and in test [3] were 0.147 nM, 0.151 nM and 0.144 nM, respectively. This molecule gave an IC50 with TNFR-Fc of 2.78 nM. In the test with soluble mouse TNFR2, the binding result is recorded as “no binding”.

B2: chimeric antibody clone 24 (rab600_23_24) (antibody, V domains shown)
VH: QSLEESGGRLVTPGTPLTLTCTASGFSLNSYGVNWVRQAPGKGLEWIGGINTGGSTYYANWAKGRFTISKTSAMVDLKVTSPTTEDTATYVCARTSGNNVYNYFTLWGQGTLVTVSS
VL: DIVMTQTPSSVSAAVGGTVTIYCQASQSIPSLLAWYQQKSGQPPKLLIYAPSTLASGVPSRFKASGSGTQFTLTISDLECADAATYYCQSYYYGDNTYNNIFGGGTEVVVK
With B2, the values for the 50% effective concentration (EC50) in test [1], in test [2] and in test [3] were 0.1 nM, 0.093 nM and 0.098 nM, respectively. In the test with TNFR-Fc, this molecule returned an IC50 of 3.16 nM. In the test with soluble mouse TNFR2, the binding result is “no binding”.

B3: chimeric antibody clone 37D1.4 (rab600_23_37D1.4) (antibody, V domains shown)
VH: QSLEESGGRLVTPGTPLTLTCTVSGFSLNSNGMNWVRQAPGKGLEWIGGINAGGSAYYANWAKGRFTISKTSTMVDLKITSPTTEDTATYFCAKTSGINVYNYLNLWGQGTLVTVSS
VL: DIVMTQTPSPVSAAVGGTVTINCQASQSIYTALAWYQQKSGQPPKLLIYAASTLASGVPSRFKGSGSGTQFTLTISDLECADAATYYCQNYYYGDNTYNNTFGGGTEVVVK
In turn, B3 had an IC50 with TNFR-Fc of 27.8 nM. Also, the binding result in the test with soluble mouse TNFR2 is recorded as “no binding”. The EC50 in test [2] was found to be 0.081 nM; in test [3] it was 0.156 nM.

B4: chimeric antibody clone 8G11.5 (rab600_23_8G11.5) (antibody, V domains shown)
VH: QSLEESGGRLVTPGTPLTLTCTVSGFSLNSNGMNWVRQAPGKGLEWIGGINAGGSAYYANWAKGRFTISKTSTMVDLKITSPTTEDTATYFCAKTSGINVYNYLNLWGQGTLVTVSS
VL: DIVMTQTPSPVSAAVGGTVTINCQASQSIYTALAWYQQKSGQPPKLLIYAASTLASGVPSRFKGSGSGTQFTLTISDLECADAATYYCQNYYYGDNTYNNTFGGGTEVVVK
Regarding B4, 24.6 nM corresponded to half-maximal inhibition in the test with TNFR-Fc (IC50). In addition, in the test with soluble mouse TNFR2, the binding result is “no binding”. Moreover, the EC50 in test [2] was determined as 0.0927 nM; in test [3], 0.157 nM.

B5: chimeric antibody clone 11G12.1 (rab600_23_11G12.1) (antibody, V domains shown)
VH: QSLEESGGDLVQPGASLTLTCTASGFSVNVNSYMCWVRQAPGKGLELIACIDTGSGGSTWYGSWAKGRFTISKSTNLNTVTLQMTSLTAADTATYFCARARNTYGYGDYVYGGAFDPWGPGTLVTVSS
VL: DIVMTQTPASVEAAVGGTVTIKCQASQSISSTYLSWYQQKPGQRPKLLIYQASTLASGVPSRFKGSGSGTEFTLTISDLECADAATYYCQGGYFSDNGCYNAFGGGTEVVVK
notes: also called rab600_23_HG12.1
In the case of B5, the binding result with soluble mouse TNFR2 is given as “no binding”. Also, the EC50 in test [2] came out at 0.191 nM; in test [3] it was 0.261 nM.

B6: chimeric antibody clone 55F6.1 (taken as rab600_23_55F6.6) (antibody, V domains shown)
VH: QQQLEESGGDLVKPGASLTVTCTASGFSFTNNYYMCWVRQAPGKGLEWIGCIYPSIVGPTYYANWAKGRFTISKTSSTTVTLEMTSLTAADTATYFCVRDRYDDYGDYFNLWGPGTLVTVSS
VL: DIVMTQTPASVSVPVGGTVTIKCQASQSIYNYLSWYQQKPGQPPKRLIYYASTLASGVPSRFSGSGSGTEFTLTISDLECADAATYYCQSNSGVNGNRYGNAFGGGTEVVVK
B6: the values for the EC50 in test [1], in test [2] and in test [3] were 1.32 nM, 0.0862 nM and 0.124 nM, respectively. For the same molecule, in the test with TNFR-Fc, it took 4.35 nM to reach half-maximal inhibition (IC50). Also, in the test with soluble mouse TNFR2, the binding result is “no binding”.

B7: chimeric antibody clone 23.71 (rab600_23_71) (antibody, V domains shown)
VH: QSVEESGGRLVTPGTSLTLTCTVSGIDLSSYAMSWVRQAQGKGLEWIGIIGDSGSTWYASWAKGRFTISKTSTTVDLKITSPTPEDTATYFCAREPDYGGYAGYGYGDLWGQGTLVTVSS
VL: IKMTQTLASVSAAVGGTGSISCQASEDIGNYVAWYQQKPGQPPKFLIYDTSHLASGVPSRFKGSRSGKEFTLTISGVQCDDAATYYCQHGYYTSDTDNTFGGGTEVVVK
With B7, the values for the EC50 in test [1], in test [2] and in test [3] were 0.26 nM, 0.243 nM and 0.206 nM, respectively. In the test with TNFR-Fc, this molecule showed an IC50 of 5.41 nM. The binding result in the test with soluble mouse TNFR2 was “no binding”.

B8: chimeric antibody clone 8G10.7 (rab600_23_8G10.7) (antibody, V domains shown)
VH: LEQSGGGAGGGLVKPGGSLELCCKASGFTLINSHWICWVRQAPGKGLEWIGCIFAGSAGSTYYATWVSGRFTLSRDIDQNTGCLQLNSLTAADTAMYYCARDQTNTAYDPFYLNLWGQGTLVTVSS
VL: IEMTQTPFSVSAAVGGTVTINCQASENIYSSLAWYQQKPGQPPKLLIYAASDLASGVPSRFSGSGSGTEYTLTISGVQCADAATYYCQSAYSSGSDDNGFGGGTEVVVK
As for B8, the binding result with soluble mouse TNFR2 is on record as “no binding”. Besides, the EC50 is 0.269 nM in test [2] and 0.243 nM in test [3].

B9: chimeric antibody clone 25.71 (rab600_25_71) (antibody, V domains shown)
VH: QSVEESEGRLVTPGTPLTLTCTVSGIDLSSYAMGWVRQAPGMGLEWIGDISTSGNAYYATWVKGRFTISRTSTTVDLKMASLTTADTATYFCARADYGGETYAFDPWGPGTLVTVSS
VL: DIVMTQTPASVEAAVGGTVTIKCQASQSISSYLNWYQQKPGQPPKLLIYSASTLASGVPSRFKGSGSGTQFTLTISGVECADAATYYCQQGYSDSNIDNVFGGGTEVVVK
Take B9: the EC50 in test [1] amounted to 0.091 nM; in test [2] it was 0.197 nM; in test [3], 0.147 nM. For the same molecule, inhibition with TNFR-Fc was half-maximal at 2.98 nM (IC50). Moreover, in the test with soluble mouse TNFR2, the binding result is “no binding”.

B10: chimeric antibody clone 28B7.3 (rab600_23_28B7.3) (antibody, V domains shown)
VH: QSVEESGGRLVTPGTPLTLTCTVSGFSLNSHYMIWVRQAPGKGLEYIGIITSSDYIYYARWAKGRFTISKTSSTTVDLKITSPTTEDTATYSCARYNYDDDGELFNLWGQGTLVTVSS
VL: AVLTQTPSSVSAAVGGTVTLNCQSSQSIDANNDLAWYQQKPGQPPRLLIYLASKLASGVPSRFSGSGSGTQFTLTISGVQCDDAATYYCLGGYDDDADNTFGGGTEVVVK
As to B10, the EC50 in test [1] was 0.321 nM; in test [2], 0.0763 nM; in test [3], 0.149 nM. Besides, the IC50 in the test with TNFR-Fc was 2.97 nM. In the test with soluble mouse TNFR2, the binding result was “no binding”.

B11: chimeric antibody clone 37H4.1 (rab600_23_37H4.1) (antibody, V domains shown)
VH: QSVEESGGRLVTPGTPLTLTCTVSGFSLNSHYMIWVRQAPGKGLEYIGVITSSDYIYYARWAKGRFTISKTSSTTVDLKITSPTTEDTATYFCARYNYDDDGELFNLWGQGTLVTVSS
VL: AVLTQTPSSVSAAVGGTVTLNCQSSQSIDANNDLAWYQQKPGQPPKLLIYLASTRASGVPSRFKGSGSGTQFTLTISGVQCYDAATYYCLGGYDDDADNTFGGGTEVVVK
In the test with TNFR-Fc, B11 displayed an IC50 of 2.92 nM. For the same molecule, the binding result in the test with soluble mouse TNFR2 is on record as “no binding”. Also, the EC50 in test [2] was 0.195 nM; in test [3], 0.184 nM.
